# US20030176334A1 (Scripps Research, published 2003)
# Square brackets hold non-standard residues; d marks the D form.
# Columns and labels:
# [1] = target: integrin αvβ3 (vitronectin receptor), purified and immobilized (UniProt P06756); assay: solid phase receptor binding assay, iodinated MMP-2 on immobilized αvβ3
# [2] = target: integrin αIIbβ3, purified and immobilized (UniProt P08514); assay: solid phase receptor binding assay, iodinated MMP-2 on immobilized αIIbβ3
# [3] = target: T1, integrin αvβ3 (vitronectin receptor), purified and immobilized (UniProt P06756 31-1048; P05106 27-788); assay: competition, 125I-fibrinogen (1 nM) binding to immobilized purified αvβ3, gamma counting; mean of duplicates ± SD
# T1 construct: Purified integrin coated at 50 ng per well; also called αvβ3 receptor
# T1 sequence (P06756 31-1048, form in doubt, chain 1 of 2): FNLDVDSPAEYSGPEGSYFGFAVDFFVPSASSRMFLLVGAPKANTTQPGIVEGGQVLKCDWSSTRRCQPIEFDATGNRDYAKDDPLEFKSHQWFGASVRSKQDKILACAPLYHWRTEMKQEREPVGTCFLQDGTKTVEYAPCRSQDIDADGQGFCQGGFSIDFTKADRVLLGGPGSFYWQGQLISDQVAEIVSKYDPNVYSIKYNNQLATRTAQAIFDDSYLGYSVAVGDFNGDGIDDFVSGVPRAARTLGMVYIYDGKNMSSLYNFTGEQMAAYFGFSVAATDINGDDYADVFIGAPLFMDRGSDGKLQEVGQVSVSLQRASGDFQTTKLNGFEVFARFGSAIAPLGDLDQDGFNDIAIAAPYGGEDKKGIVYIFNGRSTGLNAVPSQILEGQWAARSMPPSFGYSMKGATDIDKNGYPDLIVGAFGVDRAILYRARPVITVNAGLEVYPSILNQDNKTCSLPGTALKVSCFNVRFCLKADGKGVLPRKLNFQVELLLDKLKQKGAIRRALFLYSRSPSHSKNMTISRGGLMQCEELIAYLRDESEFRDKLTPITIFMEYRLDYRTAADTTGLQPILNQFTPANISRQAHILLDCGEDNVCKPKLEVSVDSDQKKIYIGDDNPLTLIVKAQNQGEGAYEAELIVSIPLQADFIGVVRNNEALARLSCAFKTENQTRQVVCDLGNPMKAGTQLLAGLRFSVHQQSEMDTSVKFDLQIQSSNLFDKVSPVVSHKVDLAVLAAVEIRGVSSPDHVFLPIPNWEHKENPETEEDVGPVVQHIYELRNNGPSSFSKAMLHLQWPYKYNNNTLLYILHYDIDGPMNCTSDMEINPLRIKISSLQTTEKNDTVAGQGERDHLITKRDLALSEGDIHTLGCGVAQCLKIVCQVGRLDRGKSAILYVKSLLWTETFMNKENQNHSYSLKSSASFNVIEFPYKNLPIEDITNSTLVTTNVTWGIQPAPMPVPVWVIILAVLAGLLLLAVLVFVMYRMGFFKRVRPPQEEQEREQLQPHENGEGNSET
# T1 sequence (P05106 27-788, form in doubt, chain 2 of 2): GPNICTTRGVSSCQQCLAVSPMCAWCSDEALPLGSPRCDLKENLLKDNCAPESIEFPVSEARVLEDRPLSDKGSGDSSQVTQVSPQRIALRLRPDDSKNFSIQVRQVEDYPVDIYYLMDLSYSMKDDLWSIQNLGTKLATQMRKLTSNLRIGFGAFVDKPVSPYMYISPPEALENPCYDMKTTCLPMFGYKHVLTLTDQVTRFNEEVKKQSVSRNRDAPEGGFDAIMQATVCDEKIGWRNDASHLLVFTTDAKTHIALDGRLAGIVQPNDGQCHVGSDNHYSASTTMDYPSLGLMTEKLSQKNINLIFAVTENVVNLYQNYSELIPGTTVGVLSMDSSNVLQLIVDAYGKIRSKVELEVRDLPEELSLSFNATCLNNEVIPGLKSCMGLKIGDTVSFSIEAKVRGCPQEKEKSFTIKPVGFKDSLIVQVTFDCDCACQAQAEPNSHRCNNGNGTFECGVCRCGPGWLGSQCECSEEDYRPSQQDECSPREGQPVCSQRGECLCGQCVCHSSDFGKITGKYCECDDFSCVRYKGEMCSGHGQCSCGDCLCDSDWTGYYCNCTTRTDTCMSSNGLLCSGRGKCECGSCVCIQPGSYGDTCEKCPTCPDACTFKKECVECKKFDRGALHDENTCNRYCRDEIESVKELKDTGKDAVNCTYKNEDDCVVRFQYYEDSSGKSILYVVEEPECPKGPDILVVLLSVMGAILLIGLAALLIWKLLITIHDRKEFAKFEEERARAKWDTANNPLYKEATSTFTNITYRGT
# Method: (§1) Briefly, selected purified integrins were separately immobilized in Titertek microtiter wells at a coating concentration of 50 nanograms (ng) per well. […] After incubation for 18 hours at 4C, nonspecific binding sites on the plate were blocked with 10 milligrams/milliliter (mg/ml) of bovine serum albumin (BSA) in Tris-buffered saline. […] Radiolabeled ligands were used at concentrations of 1 nM and binding was challenged separately with unlabeled synthetic peptides.
# (§2) Following a three hour incubation, free ligand was removed by washing and bound ligand was detected by gamma counting.
# [4] = target: T2, integrin αIIbβ3, purified and immobilized (UniProt P08514 32-1039; P05106 27-788); assay: competition, 125I-fibrinogen (1 nM) binding to immobilized purified αIIbβ3, gamma counting; mean of duplicates ± SD
# T2 construct: Purified integrin coated at 50 ng per well; also called α11bβ3
# Method: as §1, §2
# [5] = target: T1, integrin αvβ3 (vitronectin receptor), …; assay: competition, fibrinogen (FG) binding to immobilized αvβ3; individual assay
# Method: as §1, §2
# [6] = target: T1, integrin αvβ3 (vitronectin receptor), …; assay: competition, vitronectin (VN) binding to immobilized αvβ3; individual assay
# Method: as §1, §2
# [7] = target: T2, integrin αIIbβ3, purified and …; assay: competition, fibrinogen (FG) binding to immobilized αIIbβ3; individual assay
# Method: as §1, §2
# [8] = target: T2, integrin αIIbβ3, purified and …; assay: competition, vitronectin (VN) binding to immobilized αIIbβ3; individual assay
# Method: as §1, §2
# Chain of integrin αvβ3 (vitronectin receptor), purified and immobilized (UniProt P06756) (P06756 31-1048, form in doubt, chain 1 of 2): as the sequence (P06756 31-1048, form in doubt, chain 1 of 2) above
# Chain of integrin αvβ3 (vitronectin receptor), purified and immobilized (UniProt P06756) (P05106 27-788, form in doubt, chain 2 of 2, further chain): as the sequence (P05106 27-788, form in doubt, chain 2 of 2) above
Molecule,IC50 [3],IC50 [4],IC50 [5],IC50 [6],IC50 [8],further results
MMP-2 (matrix metalloproteinase-2) as used in the solid phase receptor binding assays (enzyme),–,–,–,–,–,bound cpm [1]: 300 cpm; bound cpm [2]: 10 CPM
"cyclo(RAD[dF]V) (also: TFA salt, also called cyclo(Arg-Ala-Asp-D-Phe-Val)) [peptide 62185, cyclo(RADfV)]",0.885 µM,100 µM,–,–,–,–
"cyclo(R[dA]DFV) (also: TFA salt, TFA salt; also called cyclo(Arg-D-Ala-Asp-Phe-Val)) [peptide 62186, cyclo(RaDFV)]",57.5 µM,100 µM,–,–,–,–
"cyclo(GRGD[dF]L) (also: TFA salt, TFA salt) [peptide 62179, cyclo(GRGDfL)]",0.395 µM,0.055 µM,–,–,–,–
"cyclo(ARGD[dF]L) (also: TFA salt, TFA salt) [peptide 62175, cyclo(ARGDfL)]",1.05 µM,0.63 µM,–,–,–,–
"cyclo(G[dR]GDFV) (also: TFA salt, TFA salt; also called cyclo(-Gly-D-Arg-Gly-Asp-Phe-Val); c-(GrGDFV)) [peptide 62181, cyclo(GrGDFV)]",1.96 µM,15 µM,–,–,–,–
"YTAECKPQVTRGDVF (Linear synthetic peptide; also called VN-derived amino acid residues 35-49) [peptide 62880, YTAECKPQVTRGDVF]",–,–,< 0.1 µM,0.5 µM,0.98 µM,IC50 [7]: 4.2 µM
"TRQVVCDLGNPM (Linear synthetic peptide; also called αv-derived amino acid residues 676-687) [peptide 62411, TRQVVCDLGNPM]",–,–,> 100 µM,> 100 µM,> 100 µM,–
"GVVRNNEALARLS (Linear synthetic peptide; also called αv-derived amino acid residues 655-667) [peptide 62503, GVVRNNEALARLS]",–,–,> 100 µM,> 100 µM,> 100 µM,–
"TDVNGDGRHDL (Linear synthetic peptide; also called αIIb-derived amino acid residues 296-306) [peptide 62502, TDVNGDGRHDL]",–,–,> 100 µM,> 100 µM,5 µM,IC50 [7]: 90 µM
